From the supplement of paper PMC9170038

Test system: MS2 coat protein
Assay: apparent KD of MS2 coat protein; designed switch direction (-1 OFF switch, 1 ON switch): -1; higher = weaker reporter binding
How it was run: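 Transcription of designed RNA switches on Illumina chips was done by stalled E. coli RNA polymerase. SNAP-549-labelled MS2 coat protein was then titrated in doubling steps from 0.7 or 1.5 nM to 3 µM, with steps of 0.8–1.5 h at the lowest and 10–20 min at the highest concentration. The per-design median over clusters of curve-fitted normalised fluorescence is reported as apparent KD.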

[1] = input ligand: microRNA oligo, concentration not stated
[2] = Eterna round: R95, input ligand: microRNA oligo, concentration not stated
[3] = Eterna round: R95, input ligand: FMN 200 uM
[4] = Eterna round: R95, input ligand: none

Sequence	apparent KD of MS2 coat protein (input ligand: FMN 200 uM) [nM]	apparent KD of MS2 coat protein (input ligand: none) [nM]	apparent KD of MS2 coat protein [1] [nM]	apparent KD of MS2 coat protein [2] [nM]	apparent KD of MS2 coat protein [3] [nM]	apparent KD of MS2 coat protein [4] [nM]
ACUUAUAGAGGAUAUACAGAAUAUUACAUGAGGAUCACCCAUGUUCUUCAAUGUAUAUAUGUAGAAGGCUAAGGAA [JL-ex5-4.22 Malcolm mod] (Eterna round: R97, puzzle: Exclusion 5)	252	88.8				
UCAUACGGUGAGGAUAUCUCCGCUAAAGUGUGUAGAGAAGGCGCUACAUGAGGAUCACCCAUGUUUAUGGGCAG [Ex-6 Malc#12] (Eterna round: R96, puzzle: Exclusion 6)			271			
UUUAUGCUAGGAUAUGCACCCUCGAACAUGAGGAUCACCCAUGUACAAUAAACGCAUGAAGCAGAAGGAGCUUCCA [EX5 A.20] (Eterna round: R97, puzzle: Exclusion 5)	56.4	37.1				
UGAUCUUGUGUUAGGAUAUGCUGGUUUUUUUUUCAGCAGAAGGGACAUGAGGAUCACCCAUGUUCUCUCUUUUU [Magic-10] (puzzle: Brourd's mod of Exclusion 4)				15		
AGUAACCGUCACGAAAGUGAUGGUUACACAAGUAAUGAAACAUGAGGAUCACCCAUGUCCUCAUUUGCUCGUCUUAU [Sensor 3 - 39] (puzzle: Sensor v3, turn-off variant 2)				362	354	350
AAGUCGAGCGUGAGGAUAUCGUUCGAACGACCGAACGAGAAGGCACAUGAGGAUCACCCAUGUGAUUCAGUUCA [Brourd's EX4 #46] (Eterna round: R97, puzzle: Brourd's mod of Exclusion 4)	39.8	17.8				
UACAUGAGGAUCACCCAUGUUUUGUCGUGUAUGGUAUUUAUCUAGGAUAUCAUUUUAUUAAGUUAUGAGAAGGAGAAUAUUAAU [JMF's solution 90] (Eterna round: R96, puzzle: Exclusion NG 3)	34.8	32.3	24.9			
UUAGUAUAGCAAGGAUAUGUUUAUGUAUAGUUGCCUCUUACAUGAGGAUCACCCAUGUUUAACUUACAGAAGGUGCAAUGAUUU [JR_ExcNG2_Sub033] (Eterna round: R96, puzzle: Exclusion NG 2)	279	137	108			
CUGUUUUCCGCAGGAUAUGCUCCUCCAUUAUUUGCAGAAGGGCGUUGAACAUGAGGAUCACCCAUGUAUGUAAUUGAUUAUUGC [JR_ExcNG1_Sub070] (Eterna round: R96, puzzle: Exclusion NG 1)	27.7	33.8	27.5			
GAUUAUGCGAGCUUUAGGGACAUGAGGAUCACCCAUGUUCGUCUUAUUGGUCUGGAUACACUAACAUACCUAAAUCU [JMF 14] (puzzle: Sensor v3, turn-off variant 1)				27.9	19.2	21.2
GUGAAACAUGAGGAUCACCCAUGUCAGGAUAUGCAUCCAGUUCACCUAUAAAGACGGUGUAGAAGGGACAAUAA [Eternabot (Original) Solution 7] (Eterna round: R97, puzzle: Exclusion 1)	22.4	21.3				
CUUGUGUGAGGAUAUGAAUUGCCUGGACAUACAGGCUCCUGUCAGAAGGCACAUGAGGAUCACCCAUGUGGGCA [Andiriso] (Eterna round: R97, puzzle: Exclusion 4)	98.1	411				
AAAUGAAAGGCAGGAUAUCGUACUGAUCUUUGUCGAGAAGGGCCAGGGUCCCUCGGCUACAUGAGGAUCACCCAUGUUAAAAGA [Onabele] (Eterna round: R96, puzzle: Exclusion NG 1)	56.9	36.2	29.4			
AGUACUGACACGUUGGUGUUAGUACAAUAAGCUUGUGACACAUGAGGAUCACCCAUGUCCUCAUAAGCUCGUCUUAU [salish99_TOv2_r2_094] (puzzle: Sensor v3, turn-off variant 2)				1080	22	20.7
UCUGGUGCAGGAUAUACAUGAGGAUCACCCAUGUGAUCAGCAGUCCUCGGACUGCAAUGUAGAAGGGCACCAGA [E3/1-D2] (Eterna round: R97, puzzle: Exclusion 3)	47.1	1230				
GUUUUAUAUGAAGGAUAUACUUAACAUGAGGAUCACCCAUGUGGUGUUGUGAGUGAGUGAGUUUAGUAGAAGGUCAAUGAUUUU [JMF's solution 77] (Eterna round: R96, puzzle: Exclusion NG 2)	1660	473	396			
UUUUUAUAUGAAGGAUAUACUUAACAUGAGGAUCACCCAUGUGGUGUUGUGAGUGAGUGAGUUUAGUAGAAGGUCAAUUAUUUU [JMF's solution 6] (Eterna round: R96, puzzle: Exclusion NG 2)	915	261	246			
GGGUGUCCAGUGAGGAUAUCCAACGCUAAGGCGCAGGAGAAGGCACAUGAGGAUCACCCAUGUAGCUGAAGAAA [Onerbegeso] (puzzle: Brourd's mod of Exclusion 4)				14.1	49.9	20
AUUGAAUGAAACCUCUAAUACAUGAGGAUCACCCAUGUUAUCGAGGAUAUGCAGAAUAGAUUAGAGCAGAAGGCGAAGUAAUAU [JR_ExcNG3_Sub024] (Eterna round: R96, puzzle: Exclusion NG 3)	17.7	12.8	9.67			
ACUAGGAGAUUAGGAUAUCUAUCUCACAUGAGGAUCACCCAUGUAUAAGCGUCCUAAAGGUGGAUGGAGAAGGGAUGUCCGAAG [Eternabot solution 13] (Eterna round: R96, puzzle: Exclusion NG 2)	14.1	17.5	13.8			
CUAAUUAGAGGAUAUACAUGAGGAUCACCCAUGUUCUUCAAGUCGCCAACGGCAUAACGUAGAAGGCUGAGUGG [Eternabot (L1) Solution 32] (Eterna round: R97, puzzle: Exclusion 3)	26.4	25.8				
GAUUAUGCGAGCUUUAGGGACAUGAGGAUCACCCAUGUUCGUCUUAUUAAUCUAGGUACGCUGACAUACCUAAAUCU [JMF 98] (puzzle: Sensor v3, turn-off variant 1)				30	21.6	20.6
GUGCCGCGAGGAUAUACAGACGGGUCCAUUACGUGUCUCGGACUUGAGGAUCACCCAAGUAGAAGGCGUCUCAG [salish99_ex2_r4_625] (Eterna round: R97, puzzle: Exclusion 2)	51.3	40.2				
GCCUCACUUGAGGAUCACCCAAGUCAGGAUAUUUGAAAGCAAGCCUAAAACACGCGUAAAAGAAGGGACUUGAA [Armare] (Eterna round: R97, puzzle: Exclusion 1)	30.3	20.9				
GUAUAUAGUGUGAGGAUAUGCUGGUCCUUGGAUCAGCAGAAGGCACAUGAGGAUCACCCAUGUAGUUUAUUUUA [Mat - Exclusion 4 - JL Mod - D3] (puzzle: Brourd's mod of Exclusion 4)				25.8		
